The supplement of paper PMC12042874
± gives the uncertainty stated by the source.

Test: amyloid nucleation score (Sup35N fusion, yeast selection) (log enrichment); library NNK3; higher = more nucleation; inactive = no reads after selection
In short: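 In psi-negative yeast, Sup35N fusions carrying peptides of 20 random codons were induced with 100 μM copper sulfate for 24 hours. The cells then grew 7 days at 30°C on medium lacking adenine and uracil, and plasmid inserts from input and output were Illumina-sequenced, excluding sequences with under 100 input reads. Nucleation score is the DiMSum log enrichment of output over input reads, centred on the mode score of non-aggregating sequences.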

Substance | amyloid nucleation score
KYVAKFSSLILTFL | inactive
LGNKGNEMPLRSKVKRWFLL | inactive
LRRRSLDHKSGSYLVTG | inactive
RPHRAWALAVRVASDVCQNS | 1.11 ± 0.11
IHGKGGLWSHSISIHWNN | inactive
RSIITGVKVDLFNLAVTVFL | 2.62 ± 0.063
MLNSLFAMNTILKW | 0.876 ± 0.083
ILKVVWYNSPEG | 0.898 ± 0.16
LLFML | inactive
YRNELCYIQRRYLPYGRWTA | inactive
FPVARAIATMGWHIGALFLN | inactive
TAVVKW | inactive
HCVTLWLKSYL | inactive
SLCNGCMIK | inactive
DKDMNEQVS | inactive
VIQIYIMRCLYDYYI | 2.8 ± 0.063
WVRAA | inactive
AYKAAYAVWCVIINGGLF | inactive
MRLMVWESLR | 1.6 ± 0.097
GGALAKNHILCR | inactive
RNCQRESGTLYNYHVARS | inactive
FQIKT | 0.041 ± 0.81
STCLTD | inactive
LTNSYLDMLRM | inactive

Substance | amyloid nucleation score
ITNCFWHWIRAISYANAANS | inactive
LLYARVIRRMCPKVVLFLSD | inactive
CCMSSIIVCYCWMYGTTKLM | 0.927 ± 0.1
IYDAGFVYQIGTEEQVCNRV | inactive
VGIRWYGFDTCRRKFGTWNI | inactive
FSNSRDSILWHRFGRICASY | 1.58 ± 0.12
KRCRFVVIFKSGIVTLWKLF | 0.568 ± 0.42
VRCYRVIMRLTFAETCQGHP | inactive
NCHAGPYEVYLVVGPELLLK | inactive
LHSVGVPMAPVKGTMWERER | inactive
GVIWSMWIASL | inactive
ISSNTGFCPAVMLGIPFFRI | inactive
IYTLSTLLWFWSAWSILAVI | -0.197 ± 1.1
VFVAMNVFMVWICRLQGSLT | 0.508 ± 0.33
QRFYILPRQCNALKGIITSL | inactive
TSKREWLMRNYAHCTNFDGR | inactive
FHTWISGLPEVHWGVLEVRW | inactive
SLRSCGSGLRSYRAVKTLPG | inactive
YMLHGTRRLRRETYGGAGRR | inactive
FMVWYREMDLVLVAQREEYK | inactive
QANFYPN | inactive
RCDRVCGWGDRFNAGSGYRW | inactive
SSGGCR | inactive
VGLWVAYYGRETNRVDNYVT | inactive

Substance | amyloid nucleation score
PRLTFSVVVRFCIHTLCLLK | inactive
CGCCHVVVNSWW | 2.65 ± 0.062
SAVRHRLWVVGLASTRLYEC | -0.24 ± 1.1
QYFPDIY | inactive
PYAPVWKRGRNYFTNSFLYM | inactive
RYYSDNDYAMQLLLEHTALY | inactive
SKTHRSVFMMAVIELKPTNS | inactive
IHLIVWGPSSTLVMVFMEVM | inactive
TFNSLVCQFIKPLHHLFATL | inactive
FKAPWLSGP | inactive
GVDRRIR | inactive
NITPRQMWVRWRQCMMGTGL | inactive
GMQPVQQ | inactive
VRYPRSLVCYWYGRNHAVWA | inactive
EGCSVRRTTHRAQVMRVGWM | inactive
TWVILCKNSWFMLI | inactive
SYYTISLRMSFTTYFCLKMS | 0.665 ± 0.13
LIFALRFSLSVSCSCAKCFR | inactive
DFVRVEMNYLDENDGGCYL | inactive
TWLIY | inactive
RLTARLINGMDY | 1.27 ± 0.1
FIRLYDKIRWYNDGNWVWHV | inactive
ANWIVGC | inactive
DSSLYKDQYRVRSSGQFKRA | inactive

Substance | amyloid nucleation score
FIKHVRIKFTWSVSREF | inactive
ILVCCISVETTHDNGPEVVG | 2.22 ± 0.061
SGGLSSLILSCFHIFIIKTY | inactive
CPFPRLSICVACNEYDNQLS | inactive
CDIISMALEPQVCTEYDLQR | 1.38 ± 0.1
WRSCSKDHLCFQSPVMPLSR | 0.214 ± 0.42
PESFKGTQCVKFFYNCLLFK | 1.2 ± 0.086
KFKFVLILSEDAKAT | 1.23 ± 0.17
VSLFGCKIMLRMKFGVCLSG | inactive
AVIRFCPGRNSESDSRAHRP | inactive
LFGTFQWVDWGLFIL | inactive
SLRFMLWLLL | inactive
YKICSLACVKHGREPV | inactive
VVRSRTFTSTSYTF | 0.777 ± 0.23
CFFINRRTLKGLT | inactive
VESFICDMIVSPHSLS | inactive
LFSNNNCLNIWVWLV | 2.19 ± 0.081
GDNRFLYELFLPHLNVVSNL | inactive
TFQDGLLRSDWFIMTLFRRP | inactive
ALVWFENVSVQELQWIKLTS | inactive
SCYRVNLLGVYWRVMVDVLV | inactive
SKLRYRCSNSHQVIGTPCLD | inactive
PRDYMINNLLVFQSRG | inactive
KKHIVY | inactive

Substance | amyloid nucleation score
MFLLMNKV | inactive
NSYFLSRTLLSTSGRRTCRM | inactive
RILERVATQWRYGRCPMCDR | inactive
ITGHRNVLIEHMVTTP | inactive
IVYLAVFRWGSMSKSRFGFD | inactive
IALGNVRISRYRVLWAYLSS | inactive
SGNHLSWYGTIE | 1.26 ± 0.086
PTSFYPVQRPPRFCAGHFRS | inactive
LYNVYGSRA | inactive
FPYSKIRCLCDGRNDRLGGL | -0.043 ± 0.67
IINFIVCMMSVQNMCCALFG | 1.39 ± 0.1
SRVDPLLRNWDCRFSSLLL | 0.935 ± 0.096
TVLVTMFKIEEQLTF | inactive
YFPSSCCNDFVFSSLEFQSM | 2.12 ± 0.055
LDGTGCDGPLARKNCGRNAV | inactive
TYISF | inactive
SRLIRKMKCVMGSTSSTIGY | inactive
YSRLEFKRWHVVIDSWRWMD | inactive
TVTCANSCLCRLSRMSCVVL | inactive
LWRIILWPFVTWSDMMFFQF | -0.076 ± 0.98
GFGGFGRVDNSLCIKAPCCV | 0.127 ± 0.29
VFRLLVDKYCGFSPVGLPDV | inactive
